Results: patent US20140112931A1

Columns and labels:
[1] = target: human HER3-Fc protein (R&D system) (human) (UniProt P21860); assay: ELISA, HER3-Fc coated at 250 ng/ml
[2] = target: human HER3-Fc protein (R&D system) (human) (UniProt P21860); assay: ELISA towards a 250 ng/ml coating solution of HER3 receptor, purified antibody
[3] = target: HER3 receptor (soluble analyte of the BIACORE analysis) (human) (UniProt P21860); assay: SPR, BIACORE 3000, 25 °C; antibody captured by anti-mouse polyclonal on CM5, HER3 receptor injected; bivalent analyte model

EC50 [1]: < 1 ng/mL | Ab titer after purification (Ab concentration showing an absorbance of 1 by ELISA) [2]: 400 pg/mL | Kd [3]: 4.4 nM | koff [3]: 0.00024 s⁻¹ | kon [3]: 54000 M⁻¹ s⁻¹
B1: murine anti-HER3 monoclonal antibody 9F7-F11 (antibody, from another filing, V domains shown)
VH: EVKLVESGGGLVQPGGSLKLSCAASGFTFSSYTMSWVRQTPEKRLEWVAYISDGGGVTYYPDTIKGRFTISRDNAKNTLYLQMSSLKSEDTAMYYCARDRYGLFAYWGQGTLVTVSA
VL: DIVMTQSQKFMSTSVGDRVSITCKASQNVGIAVAWYQQKPGQSPKLLIYSASNRYTGVPDRFTGSGSGTDFTLTISNMQSEDLADYFCQQYSNYPYTFGGGTKLEIK
